Key:
[1] = biological target: Soluble human recombinant p97 (melanotransferrin) (human) (UniProt P08582); test: SPR (BIAcore), p97 immobilised on CM5 chip, mAb injected
[2] = biological target: Soluble human recombinant p97 (melanotransferrin) (human) (UniProt P08582); test: SPR (BIAcore), p97 immobilised on CM5 chip, mAb injected at 0.05 µg/µl
[3] = biological target: Soluble human recombinant p97 (melanotransferrin) (human) (UniProt P08582); test: cell-based or functional assay
[4] = biological target: endogenous membrane-bound p97 of HMEC-1 and SK-MEL28 cells (human) (UniProt P08582); test: cell-based or functional assay
Chain of endogenous membrane-bound p97 of HMEC-1 and SK-MEL28 cells (human) (P08582 20-709): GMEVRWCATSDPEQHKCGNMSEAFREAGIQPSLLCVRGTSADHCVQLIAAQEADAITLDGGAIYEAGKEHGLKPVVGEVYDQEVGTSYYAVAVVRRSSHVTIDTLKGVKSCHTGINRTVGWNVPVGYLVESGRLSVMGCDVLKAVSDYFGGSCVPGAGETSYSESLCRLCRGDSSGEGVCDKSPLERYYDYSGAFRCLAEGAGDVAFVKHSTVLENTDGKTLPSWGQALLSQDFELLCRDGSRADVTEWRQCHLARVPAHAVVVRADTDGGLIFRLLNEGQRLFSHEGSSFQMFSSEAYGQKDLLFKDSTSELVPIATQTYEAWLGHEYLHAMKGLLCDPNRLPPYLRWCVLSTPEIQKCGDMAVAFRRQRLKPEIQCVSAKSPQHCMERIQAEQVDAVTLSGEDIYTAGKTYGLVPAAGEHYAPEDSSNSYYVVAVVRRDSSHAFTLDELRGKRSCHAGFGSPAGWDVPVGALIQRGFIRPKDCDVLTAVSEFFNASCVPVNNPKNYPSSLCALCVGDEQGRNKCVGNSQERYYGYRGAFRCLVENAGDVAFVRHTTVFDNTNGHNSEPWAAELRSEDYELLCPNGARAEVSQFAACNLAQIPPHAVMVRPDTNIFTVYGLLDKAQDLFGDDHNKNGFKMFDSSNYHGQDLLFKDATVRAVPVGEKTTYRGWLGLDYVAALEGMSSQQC

Chain of Soluble human recombinant p97 (melanotransferrin) (human) (P08582 20-711 T431K): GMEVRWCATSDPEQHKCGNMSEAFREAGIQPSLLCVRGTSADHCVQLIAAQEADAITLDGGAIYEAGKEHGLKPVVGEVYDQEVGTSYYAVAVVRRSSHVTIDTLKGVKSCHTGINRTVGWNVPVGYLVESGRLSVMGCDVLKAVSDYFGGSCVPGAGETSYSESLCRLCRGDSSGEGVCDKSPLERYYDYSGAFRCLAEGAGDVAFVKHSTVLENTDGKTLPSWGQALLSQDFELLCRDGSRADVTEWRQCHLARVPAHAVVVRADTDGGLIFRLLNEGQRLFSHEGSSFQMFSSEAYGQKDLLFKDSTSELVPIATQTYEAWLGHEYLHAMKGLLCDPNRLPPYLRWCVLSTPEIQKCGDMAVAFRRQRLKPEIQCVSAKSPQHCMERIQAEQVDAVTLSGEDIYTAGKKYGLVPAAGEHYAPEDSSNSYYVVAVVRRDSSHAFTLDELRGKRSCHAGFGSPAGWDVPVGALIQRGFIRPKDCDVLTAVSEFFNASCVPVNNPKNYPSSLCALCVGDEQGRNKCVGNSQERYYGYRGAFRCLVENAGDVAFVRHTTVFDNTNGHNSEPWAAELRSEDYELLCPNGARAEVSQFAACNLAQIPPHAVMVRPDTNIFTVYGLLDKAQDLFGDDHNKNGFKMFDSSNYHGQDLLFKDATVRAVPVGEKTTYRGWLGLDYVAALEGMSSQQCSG

“monoclonal antibody L235 directed against p97” showed a Ka [1] of 9e+08 M⁻¹, a Kd [1] of 1.2 nM and a koff [1] of 5.3e-05 s⁻¹. For the same substance, the kon [1] was 44000 M⁻¹ s⁻¹, the ΔRU [2] was 1060 RU and the inhibition of the effect of soluble p97 on plasminogen activation by tPA [3] was 80%. For the same substance, the inhibition of the pro-uPA activation induced by p97 (plasminolytic activity) [3] was 50%, the inhibition of HMEC-1 cell migration by 50 nM mAb L235 (Boyden chamber) [4] was 54% and the inhibition of SK-MEL28 cell migration by 50 nM mAb L235 (Boyden chamber) [4] was 48%. For the same substance, the inhibition of plasminolytic activity of HMEC-1 cells by 250 nM mAb L235 [4] was > 50%.

From patent US20070053894A1
